Source: patent publication US9657062B2, “Ghrelin analogues” (Zealand Pharma A/S, priority 2012, dated 2017)
*1 amine or outer side, *2 acyl side, *3 side chain or, on linkers, in order; H or OH if unused. Bridges are numbered along the chain shown (N, C = ends). Side-chain parts run from the residue outwards. [ ]: non-standard residue; d: D form. The star is where a group is joined. γGlu = O=C(O)[C@H](CCC(=O)[*:2])N[*:1]; Palmitoyl = CCCCCCCCCCCCCCCC(=O)*; Octanoyl = CCCCCCCC(=O)*; Dap = NC[C@H](N)C(=O)O; Octyl = CCCCCCCC*

These binders were tested against human growth hormone secretagogue receptor type 1a (human, UniProt Q92847 1-366) (assay: cell-based or functional assay).
Chain of human growth hormone secretagogue receptor type 1a (Q92847 whole entry): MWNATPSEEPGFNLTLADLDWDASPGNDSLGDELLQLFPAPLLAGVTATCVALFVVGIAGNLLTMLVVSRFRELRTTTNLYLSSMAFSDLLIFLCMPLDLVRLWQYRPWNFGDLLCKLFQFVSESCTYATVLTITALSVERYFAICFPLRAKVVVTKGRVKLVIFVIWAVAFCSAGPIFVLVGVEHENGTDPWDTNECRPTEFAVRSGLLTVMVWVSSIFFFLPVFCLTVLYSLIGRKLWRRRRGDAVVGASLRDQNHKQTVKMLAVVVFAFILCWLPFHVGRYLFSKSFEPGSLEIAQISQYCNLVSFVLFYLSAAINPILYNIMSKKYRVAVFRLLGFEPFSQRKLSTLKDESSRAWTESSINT

Row | Binder | EC50 (nM); Ca2+ induction in HEK293 cells stably expressing the human ghrelin receptor [nM]
1 | H-PSS(Octyl)FLSPEHQRVQQRKESK([γGlu-Palmitoyl])KPPAKLQPR-NH2 (SMILES CCCCCCCCCCCCCCCC(=O)N[C@@H](CCC(=O)NCCCC[C@H](NC(=O)[C@H](CO)NC(=O)[C@H](CCC(=O)O)NC(=O)[C@H](CCCCN)NC(=O)[C@H](CCCNC(=N)N)NC(=O)[C@H](CCC(N)=O)NC(=O)[C@H](CCC(N)=O)NC(=O)[C@@H](NC(=O)[C@H](CCCNC(=N)N)NC(=O)[C@H](CCC(N)=O)NC(=O)[C@H](Cc1c[nH]cn1)NC(=O)[C@H](CCC(=O)O)NC(=O)[C@@H]1CCCN1C(=O)[C@H](CO)NC(=O)[C@H](CC(C)C)NC(=O)[C@H](Cc1ccccc1)NC(=O)[C@H](COCCCCCCCC)NC(=O)[C@H](CO)NC(=O)[C@@H]1CCCN1)C(C)C)C(=O)N[C@@H](CCCCN)C(=O)N1CCC[C@H]1C(=O)N1CCC[C@H]1C(=O)N[C@@H](C)C(=O)N[C@@H](CCCCN)C(=O)N[C@@H](CC(C)C)C(=O)N[C@@H](CCC(N)=O)C(=O)N1CCC[C@H]1C(=O)N[C@@H](CCCNC(=N)N)C(N)=O)C(=O)O) [H-PS-S(O-octyl)-FLSPEHQRVQQRKES-K(hexadecanoyl-isoGlu)-KPPAKLQPR-NH2] | 0.496
2 | H-PSS(Octyl)FLSPEHERVQKRKESKKPPAKLQPR-NH2 (lactam 10-14; SMILES CCCCCCCCOC[C@H](NC(=O)[C@H](CO)NC(=O)[C@@H]1CCCN1)C(=O)N[C@@H](Cc1ccccc1)C(=O)N[C@@H](CC(C)C)C(=O)N[C@@H](CO)C(=O)N1CCC[C@H]1C(=O)N[C@@H](CCC(=O)O)C(=O)N[C@@H](Cc1c[nH]cn1)C(=O)N[C@H]1CCC(=O)NCCCC[C@@H](C(=O)N[C@@H](CCCNC(=N)N)C(=O)N[C@@H](CCCCN)C(=O)N[C@@H](CCC(=O)O)C(=O)N[C@@H](CO)C(=O)N[C@@H](CCCCN)C(=O)N[C@@H](CCCCN)C(=O)N2CCC[C@H]2C(=O)N2CCC[C@H]2C(=O)N[C@@H](C)C(=O)N[C@@H](CCCCN)C(=O)N[C@@H](CC(C)C)C(=O)N[C@@H](CCC(N)=O)C(=O)N2CCC[C@H]2C(=O)N[C@@H](CCCNC(=N)N)C(N)=O)NC(=O)[C@H](CCC(N)=O)NC(=O)[C@H](C(C)C)NC(=O)[C@H](CCCNC(=N)N)NC1=O) [H-PS-S(O-octyl)-FLSPEHE()RVQK()RKESKKPPAKLQPR-NH2] | 0.155
3 | H-PS[NH‑CH(n-C10H21)‑C(O)]FLSPK-NH2 [H-PS-[NH-CH(n-C10H21)-C(O)]-FLSPK-NH2] | 0.432
4 | H-PS[Dap](Octanoyl)FLSPY-NH2 (SMILES CCCCCCCC(=O)NC[C@H](NC(=O)[C@H](CO)NC(=O)[C@@H]1CCCN1)C(=O)N[C@@H](Cc1ccccc1)C(=O)N[C@@H](CC(C)C)C(=O)N[C@@H](CO)C(=O)N1CCC[C@H]1C(=O)N[C@@H](Cc1ccc(O)cc1)C(N)=O) [H-PS-Dap(N-octanoyl)-FLSPY-NH2] | 0.195
5 | RSFLSPEHQRVQQRKESKKPPAKLQPR (N-terminal Ac-Orn (acetylated ornithine, stands for X1 and X2 together); next residue Ser(O-octyl) (position 3 of the formula); C-terminal amide (-NH2)) [Ac-Orn-S(O-octyl)-FLSPEHQRVQQRKESKKPPAKLQPR-NH2] | 1.4
6 | H-PSS(Octyl)FLSPEHQRVQRKESKKPPAKLQPR-NH2 (SMILES CCCCCCCCOC[C@H](NC(=O)[C@H](CO)NC(=O)[C@@H]1CCCN1)C(=O)N[C@@H](Cc1ccccc1)C(=O)N[C@@H](CC(C)C)C(=O)N[C@@H](CO)C(=O)N1CCC[C@H]1C(=O)N[C@@H](CCC(=O)O)C(=O)N[C@@H](Cc1c[nH]cn1)C(=O)N[C@@H](CCC(N)=O)C(=O)N[C@@H](CCCNC(=N)N)C(=O)N[C@H](C(=O)N[C@@H](CCC(N)=O)C(=O)N[C@@H](CCCNC(=N)N)C(=O)N[C@@H](CCCCN)C(=O)N[C@@H](CCC(=O)O)C(=O)N[C@@H](CO)C(=O)N[C@@H](CCCCN)C(=O)N[C@@H](CCCCN)C(=O)N1CCC[C@H]1C(=O)N1CCC[C@H]1C(=O)N[C@@H](C)C(=O)N[C@@H](CCCCN)C(=O)N[C@@H](CC(C)C)C(=O)N[C@@H](CCC(N)=O)C(=O)N1CCC[C@H]1C(=O)N[C@@H](CCCNC(=N)N)C(N)=O)C(C)C) [H-PS-S(O-octyl)-FLSPEHQRVQRKESKKPPAKLQPR-NH2] | 0.33
7 | H-PS[Dap](Octanoyl)FLSPEHQRVQRKESKKPPAKLQPR-NH2 [H-PS-Dap(N-octanoyl)-FLSPEHQRVQRKESKKPPAKLQPR-NH2] | 0.253
8 | H-GSSFLSPEHQKAQQRKESKKPPAKLQPR-OH [rat ghrelin without octanoyl moiety at position 3] | > 1000
9 | H-PS[Dap](Octanoyl)FLSPK-NH2 (SMILES CCCCCCCC(=O)NC[C@H](NC(=O)[C@H](CO)NC(=O)[C@@H]1CCCN1)C(=O)N[C@@H](Cc1ccccc1)C(=O)N[C@@H](CC(C)C)C(=O)N[C@@H](CO)C(=O)N1CCC[C@H]1C(=O)N[C@@H](CCCCN)C(N)=O) [H-PS-Dap(N-octanoyl)-FLSPK-NH2] | 0.364
10 | H-PSS(Octyl)FLSPEHQRKQQRKESKKPPAKLQPR-NH2 (lactam 8-12; SMILES CCCCCCCCOC[C@H](NC(=O)[C@H](CO)NC(=O)[C@@H]1CCCN1)C(=O)N[C@@H](Cc1ccccc1)C(=O)N[C@@H](CC(C)C)C(=O)N[C@@H](CO)C(=O)N1CCC[C@H]1C(=O)N[C@H]1CCC(=O)NCCCC[C@@H](C(=O)N[C@@H](CCC(N)=O)C(=O)N[C@@H](CCC(N)=O)C(=O)N[C@@H](CCCNC(=N)N)C(=O)N[C@@H](CCCCN)C(=O)N[C@@H](CCC(=O)O)C(=O)N[C@@H](CO)C(=O)N[C@@H](CCCCN)C(=O)N[C@@H](CCCCN)C(=O)N2CCC[C@H]2C(=O)N2CCC[C@H]2C(=O)N[C@@H](C)C(=O)N[C@@H](CCCCN)C(=O)N[C@@H](CC(C)C)C(=O)N[C@@H](CCC(N)=O)C(=O)N2CCC[C@H]2C(=O)N[C@@H](CCCNC(=N)N)C(N)=O)NC(=O)[C@H](CCCNC(=N)N)NC(=O)[C@H](CCC(N)=O)NC(=O)[C@H](Cc2c[nH]cn2)NC1=O) [H-PS-S(O-octyl)-FLSPE()HQRK()QQRKESKKPPAKLQPR-NH2] | 0.365
11 | H-PSS(Octyl)FLSPK-NH2 (SMILES CCCCCCCCOC[C@H](NC(=O)[C@H](CO)NC(=O)[C@@H]1CCCN1)C(=O)N[C@@H](Cc1ccccc1)C(=O)N[C@@H](CC(C)C)C(=O)N[C@@H](CO)C(=O)N1CCC[C@H]1C(=O)N[C@@H](CCCCN)C(N)=O) [H-PS-S(O-octyl)-FLSPK-NH2] | 0.388
12 | RSFLSPEHQRVQQRKESKKPPAKLQPR (N-terminal Orn (ornithine, stands for X1 and X2 together); next residue Ser(O-octyl) (position 3 of the formula); C-terminal amide (-NH2)) [H-Orn-S(O-octyl)-FLSPEHQRVQQRKESKKPPAKLQPR-NH2] | 0.527
